This note sets out measurements from the nanobody polyreactivity screen of Harvey et al. (2022).

The series in a line: yeast display, Sf9 membrane polyspecificity reagent, FACS + sequencing; frameworks hold sequencing errors. A digest of the protocol: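 Nanobodies from a synthetic yeast display library (Saccharomyces cerevisiae BJ5465), induced 36–48 hours with galactose, were stained 1 hour at 4 °C with 10% biotinylated, detergent-solubilized Sf9 membrane reagent, enriched on streptavidin microbeads, then FACS-sorted. Anti-HA (expression) and streptavidin (reagent binding) fluorescence set low and high (top ~1%) gates. Polyreactivity labels come from the gate of origin. Genes were colony-PCR amplified, MiSeq 2 × 250 sequenced and filtered by CDR length.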
As for “QVQLVESGGGLVQAGGSLRLSCAASGSIFRYYAMGWYRQAPGKERELVATISWRGGRTNYADSVKGRFTISRDNAKNTVYLQMNSLKPEDTAVYYCAADPVRRPWGVVGGDYWGQGTQVTVSS”, the “polyreactivity (PSR sort gate)” value is given as “high polyreactivity”.
With “QVQLVESGGGLVQAGGSLRLSCAASGSIFRYYVMGWYRQAPGKEREFVAAISYRGGSTYYADSVKGRFTISRDNAKNTVYLEMNSLKPEDTAVYFCYAVHYRSFWTPGSNDYWGQGTQVTVSS” the entry was “high polyreactivity”.
Take “QVQLVESGGGLVQAGGSLRLSCAASGSIFRYYVMGWYRQAPGKERELVAAITGGGGSTYYADSVKGRFTISRDNAKNTVYLQMNSLKPEDTAVYYCATATYVGVYWEYDYWGQGTQVTVSS”: the “polyreactivity (PSR sort gate)” value was “low polyreactivity”.
Turning to “QVQLVESGGGLVQAGGSLRLSCAASGSIFRYYVMGWYRQAPGKERELVASISYSVGRTYYADSVKGRFTISRDNAKNTVYLQMNSLKPEVTAVYYCAADRYWPYYSAYYTSYRMDYWGKGTQVTVSS”, the “polyreactivity (PSR sort gate)” value is on record as “high polyreactivity”.
To “QVQLVESGGGLVQAGGSLRLSCAASGSIFRYYVTGWYRQAPGKERELVATISSSGGRTYYADSVKGRFTISRDNAKNTVYLQMNSLKPEDTAVYYCNARTSPYSGYSGRYYWGQGTQVTVSS” belongs “high polyreactivity”.
To “QVQLVESGGGLVQAGGSLRLSCAASGSIFSANAMGWYRQAPGKERELLAAISSSGNTNYADSVKGRFTISRDNAKNTVYLQMNSLKPEDTAVYYCAVELKQVTPGLGYITLDYWGQGTQVTVSS” belongs “low polyreactivity”.
“QVQLVESGGGLVQAGGSLRLSCAASGSIFSAYAMGWYRQAPGKEREIVASITWSGGSTYYADSVKGRFTISRDNAKNTVYLQMNSLKPEDTAVYYCAAVYVTWYNNYEYWGQGTQVTVSS”: the “polyreactivity (PSR sort gate)” value is given as “high polyreactivity”.
To “QVQLVESGGGLVQAGGSLRLSCAASGSIFSAYVMGWYRQAPGKERELVAAITRSGGSTYYADSVKGRFTISRDNAKHTVYLQMNSLKPEDTAVYYCAAKSIIRPYAPRRDDMDYWGQGTQVTVSS” belongs “low polyreactivity”.
To “QVQLVESGGGLVQAGGSLRLSCAASGSIFSDYAMGWYRQAPGKERELVAAITQSGGSTYADSVKGRFTISRDNAKNTVYLQMNSLKPEDTAVYYCAADEVPGFGYPPYPWFDYWGQGTQVTVSS” belongs “low polyreactivity”; to “QVQLVESGGGLVQAGGSLRLSCAASGSIFSDYGMGWYRQAPGKERELVAGISWNGTSTYYADSVKGRFTISRDNAKNTVYLQMNSLKPEDTAVYYCAATFEGGISDLLDLDYWGQGTQVTVSS”, “low polyreactivity”; to “QVQLVESGGGLVQAGGSLRLSCAASGSIFSENTMGWYRQAPGTKREWVADITSGGSTNYADSVKGRFTISRDNAKNTVYLQMNSLKPEDTAVYYCAVPGRLYAHPQGYDYWGQGTQVTVSS”, “low polyreactivity”.
To “QVQLVESGGGLVQAGGSLRLSCAASGSIFSFYAMGWYRQAPGKERELVAAIRYSRGSTYYADSVKGRFTISRDNAKNTVYLQMNSLKPEDTAVYFCAARGGSRRFQSQAYSLPRYDYWGQGTQVTVSS” belongs “high polyreactivity”.
Take “QVQLVESGGGLVQAGGSLRLSCAASGSIFSFYAMGWYRQAPGKERELVADISLTTDSTYADSVKGRFTISRDNAKNTVYLQMNSLKPEDTAVYYCAADGSNWEYDYWGQGTQVTVSS”: the “polyreactivity (PSR sort gate)” value was “low polyreactivity”.
To “QVQLVESGGGLVQAGGSLRLSCAASGSIFSGNAMGWYRPAPGKERELVAAISSNGGRTYYADSVKGRFTISRDNAKNTVYLQMNSLKPEDTAVYYCAADYGKRRYGYYYWGQGTQVTVSS” belongs “high polyreactivity”; to “QVQLVESGGGLVQAGGSLRLSCAASGSIFSGNAMGWYRQAPGKVRELVAAISRSGGSTYYADSVKGRFTISRDNAKNTVYLQMNSLKPEDTAVYYCAAYRTHGPPRAIRFDYWGQGTQVTVSS”, “high polyreactivity”.
To “QVQLVESGGGLVQAGGSLRLSCAASGSIFSGWYTMGWYRQAPGKERELVASISISTTDTYYADSVKGRFTISRDNAKNTVYLQMNSLKPEDTAVYYCADEVTSFSFGGDATEYYWGQGTQVTVSS” belongs “low polyreactivity”; to “QVQLVESGGGLVQAGGSLRLSCAASGSIFSGYAMGWYRQAPGKERELVAAISTSSVRTYYADSVKGRFTISRDNAKNTVYLQMNSLKPEDTAVYYCAARDGGSYTPMYYWGHGTQVTVSS”, “high polyreactivity”; to “QVQLVESGGGLVQAGGSLRLSCAASGSIFSGYAMGWYRQAPGKERELVAAITRSGGRTYYADSVKGRFTISRDNAKNTVYLQMNSLKPEDTAVYYCATLPRYYGYWGQGTQVTVSS”, “high polyreactivity”.
Turning to “QVQLVESGGGLVQAGGSLRLSCAASGSIFSGYAMGWYRQAPGKERELVAAITSGGSTDYADSVKGRFTISRDNAKNSVYLQMNSLKPEDTAVYYCAAEGGYSSYGYDYWGQGTQVTVSS”, the “polyreactivity (PSR sort gate)” value is listed as “low polyreactivity”.
Regarding “QVQLVESGGGLVQAGGSLRLSCAASGSIFSGYAMGWYRQAPGKERELVAALTRSGGRTYYADSVKGRFTISRDNAKNTVYLQMNSLKPEDTSVYYCATLPRYYGYWGQGTQVTVSS”, the “polyreactivity (PSR sort gate)” value is reported as “high polyreactivity”.
With “QVQLVESGGGLVQAGGSLRLSCAASGSIFSGYTMGWYRQAPGKERELVAGISYRGGSTYYADSVKGRFTISRDNAKNTVYLQMNSLKPEDTAVYYCAALYYRRGSLNYEYWGQGTQVTVSS” the entry was “high polyreactivity”; with “QVQLVESGGGLVQAGGSLRLSCAASGSIFSGYVMGWSRQAPGKERELVAAISGSGGSTYYADSVKGRFTISRDNAKNTVYLQMNSLNPEDTAVYYCNKGLSRSYWWVDYWGQGTQVTVSS”, “low polyreactivity”.
Take “QVQLVESGGGLVQAGGSLRLSCAASGSIFSGYVMGWYRQAPGKERELVAAISGSGGSTYYADSVKGRFTISRDNAKNTVYLQMNSLKPEDTAVYYCNKGLSRSYWWVDYWGQGTQVTVSS”: the “polyreactivity (PSR sort gate)” value is recorded as “low polyreactivity”.
With “QVQLVESGGGLVQAGGSLRLSCAASGSIFSHNAMGWYRQAPGKERELVAAITGIVGSTYYADSVKGRFTISRDTAKNTVYLQMNSLNPEDTAVYYCAADNPVPEGSRTFEYWGQGTQVTVSS” the entry was “low polyreactivity”; with “QVQLVESGGGLVQAGGSLRLSCAASGSIFSINTMGWYRQAPGKERELVAAISRTGGSTYYADSVKGRFTISRDNAKNTVYLQMNSLKPEDTAVYYCAARKYADGRIFYYWGQGTQVTVSS”, “high polyreactivity”; with “QVQLVESGGGLVQAGGSLRLSCAASGSIFSIYAMGWYRQAPGKERELVAAIDSGTSTTYADSVKGRFTISRDNAKNTVYLQMKSLKPEDTAVYYCAAALYSDVAAVATYGYYWGQGTQVTVSS”, “low polyreactivity”.
“QVQLVESGGGLVQAGGSLRLSCAASGSIFSKNAIGWYRQAPGKERELVATISRSGGSTYYADSVKGRFTISRDNAKNTVYLQMNSLKPDDSAVYYCNRDTRYYWKRYGYWGQGTQVTVSS”: the “polyreactivity (PSR sort gate)” value is given as “high polyreactivity”.
With “QVQLVESGGGLVQAGGSLRLSCAASGSIFSKNAMGWYRQAPGKERELLAAITLNGGSTYYADSVKGRFTNSRDNAKNTVYLQMNSLKPEDTSVFYFAKSDRQWWGYYYQFDYLGQGTQVTVSS” the entry was “low polyreactivity”; with “QVQLVESGGGLVQAGGSLRLSCAASGSIFSKYAMGWYRQAAGKERELVAGISCSGGSTYYADSVNGRFTISRDNAQITVYLQINSLKPEDTAVYYCAVGIPYRGRQGYYGYYSYDYWGQGTHVTVSS”, “high polyreactivity”.
Turning to “QVQLVESGGGLVQAGGSLRLSCAASGSIFSKYAMGWYRQAPGKERELVAAISWSGTSTYYADSVKGRFTISRDNAKNTVYLQMNSLKPEDTAVYYCAASSPRSLSLLGYWGQGTQVTVSS”, the “polyreactivity (PSR sort gate)” value is reported as “low polyreactivity”.
